What all share (assay): SPR
On the technique in general: Surface plasmon resonance follows binding to a sensor surface in real time, without labels.

The target of experiment [1] is HLA-B*4405^EENL (human | not stated | Epstein-Barr virus).
In experiment [2] the target is HLA-B*4403^EENL (human | not stated | Epstein-Barr virus).
The target of experiment [3] is HLA-B*4402^EENL (human | not stated | Epstein-Barr virus).
Another experiment has as its target DM1 TCR (human).

By Kd is commonly meant the equilibrium constant for the complex coming apart. By koff is commonly meant the first-order rate constant of dissociation. Low readings indicate slow dissociation, high ones fast dissociation. For DM1 TCR, in experiment [1], the Kd worked out at 0.3 µM, the Kd calc is 0.23 µM and the koff amounted to 0.02 s⁻¹. Also, in experiment [2], the Kd stood at 9.4 µM, the Kd calc is 16 µM and the dissociation rate constant (koff) turned out to be 0.25 s⁻¹. In addition, in experiment [3], the Kd turned out to be 6.3 µM, the Kd calc was 14 µM and the koff worked out at 0.2 s⁻¹.

“HLA-B*4405^EENL (from UniProt P61769 21-119) (peptide-MHC)”: the Kd in the experiment with DM1 TCR (human) amounted to 1 µM. This lies in the single-digit micromolar range.

(Values after paper PMC2626662.)
